Measured values reported in US20220251236A1 (Boehringer Ingelheim, published 2022).

Key:
[1] = target: T1, EGF6+MEMBRANE PROXIMAL PEPTIDE; experiment: flow cytometry on HEK293 cells expressing the DLL3 subdomain construct, 1.6 nM binder, PE anti-human secondary, control: secondary antibody only
T1 construct: also called Hu DLL3 EGF6+membrane proximal peptide on HEK293 cells
T1 membrane-anchored DLL3 subdomain construct: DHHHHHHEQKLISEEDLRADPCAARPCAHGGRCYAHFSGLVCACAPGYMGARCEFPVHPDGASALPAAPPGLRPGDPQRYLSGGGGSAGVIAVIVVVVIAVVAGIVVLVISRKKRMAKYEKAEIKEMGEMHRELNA
Procedure: DLL3/CD3 binding proteins were produced by transient transfection of CHO-E cells with the pTT5 vectors carrying the chain-encoding genes, as described in Example 2. […] Bound molecules were detected with PE-conjugated anti-human secondary antibody (Sigma-Aldrich, #P8047). As negative control, cells were incubated with secondary antibody only.
The samples were measured by flow-cytometry. […] The sequences of the epitope domains are listed in Example 5, Table 3.

[2] = target: T2, human DLL3 (endogenous, on SCLC cell lines NCI-H82 and SHP77 and in SCLC tissue) (human, UniProt Q9NYJ7 27-618); experiment: cell-based or functional assay
T2 sequence (looked up): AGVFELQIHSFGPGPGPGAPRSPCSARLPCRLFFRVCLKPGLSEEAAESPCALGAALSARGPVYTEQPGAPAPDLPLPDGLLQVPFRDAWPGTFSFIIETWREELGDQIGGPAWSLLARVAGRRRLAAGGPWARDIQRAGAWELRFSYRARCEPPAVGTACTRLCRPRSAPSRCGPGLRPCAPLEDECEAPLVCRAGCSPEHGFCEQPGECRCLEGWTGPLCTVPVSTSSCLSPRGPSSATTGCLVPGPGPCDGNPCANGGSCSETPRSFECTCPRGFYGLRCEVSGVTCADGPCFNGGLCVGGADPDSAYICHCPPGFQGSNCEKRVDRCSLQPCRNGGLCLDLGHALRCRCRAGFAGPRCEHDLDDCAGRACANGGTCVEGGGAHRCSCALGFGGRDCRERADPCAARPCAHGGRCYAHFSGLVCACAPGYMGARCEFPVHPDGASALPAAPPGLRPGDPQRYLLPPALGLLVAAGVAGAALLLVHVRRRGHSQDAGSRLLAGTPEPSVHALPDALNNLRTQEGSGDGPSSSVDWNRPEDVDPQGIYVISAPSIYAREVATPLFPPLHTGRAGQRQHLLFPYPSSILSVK

[3] = target: T3, chicken egg white lysozyme (chicken, UniProt P00698 19-147); experiment: SPR (Biacore T200), lysozyme coupled to CM5 chip, non-specific binding assay
T3 construct: also called Lysozyme (positive)
T3 sequence (P00698 19-147): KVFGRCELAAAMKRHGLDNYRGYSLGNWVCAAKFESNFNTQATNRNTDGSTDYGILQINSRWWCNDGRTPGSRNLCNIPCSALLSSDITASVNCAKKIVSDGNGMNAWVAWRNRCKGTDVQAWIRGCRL
Procedure: The experiment was performed on a Biacore T200. The dilution, surface preparation, and binding experiments were performed at 25° C. in 1×HBS-EP buffer prepared from 10× HBS-EP. The flow rate for both the immobilization protocol and binding experiment was at 5 μL/min.
To prepare the surface for the non-specific binding experiment, chicken egg white lysozyme and trypsin inhibitor from glycine max soybean were coupled manually to a series S CM5 chip with the surface density of 3000-5000 RU using the amine coupling kit according to the manufacture instructions.
Samples were prepared at 1 μM in 1×HBS-EP buffer. The samples were injected over activated surfaces with a 10 min association and 10 min dissociation. The data was collected using Biacore T200 Control Software version 2.0.1 and analyzed using Biacore T200 Evaluation Software version 3.0.

Human CD3 E+G HuFc-6xHis = target: T4, Human CD3 E+G HuFc-6xHis (human); experiment: SPR (ProteOn XPR36), CD3εγ-Fc amine-coupled, bispecific as analyte, equilibrium fit, Example 4A
T4 construct: also called hu CD3εγ-Fc
T4 sequence (chain, as listed by the source limits assumed): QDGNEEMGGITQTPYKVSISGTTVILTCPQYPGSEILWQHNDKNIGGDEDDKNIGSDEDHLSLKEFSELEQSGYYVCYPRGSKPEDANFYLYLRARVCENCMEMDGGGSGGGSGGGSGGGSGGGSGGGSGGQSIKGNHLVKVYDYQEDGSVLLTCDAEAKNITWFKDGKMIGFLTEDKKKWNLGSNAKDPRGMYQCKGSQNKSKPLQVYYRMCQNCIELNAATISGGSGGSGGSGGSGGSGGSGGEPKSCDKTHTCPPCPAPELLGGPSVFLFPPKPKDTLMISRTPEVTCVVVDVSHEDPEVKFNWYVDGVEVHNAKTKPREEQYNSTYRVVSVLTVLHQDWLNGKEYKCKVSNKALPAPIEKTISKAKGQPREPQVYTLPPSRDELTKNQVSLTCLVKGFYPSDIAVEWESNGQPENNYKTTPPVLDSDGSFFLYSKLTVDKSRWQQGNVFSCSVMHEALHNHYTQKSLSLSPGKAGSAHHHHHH
Procedure: (§1) The binding affinity of purified DLL3/CD3 bispecific constructs for recombinant human and cyno DLL3-ECD and Fc-fusion proteins of human and cyno CD3 εγ subunits was determined by Surface Plasmon Resonance (SPR), using a ProteOn XPR36 instrument (Bio-Rad). The running buffer and all dilutions (except where stated) were done in PBS-T-EDTA. The GLM sensor chip (Bio-Rad) was normalized and pre-conditioned as per the manufacturer's recommendations. The sensor chip was activated with equal mixture of EDC/s-NHS in the horizontal direction for 300 sec at a flow rate of 30 ul/min and immobilized with protein A/G (20 ug/ml in 10 mM acetate pH 4.5) in the horizontal direction for 300 sec at a flowrate of 30 ul/min resulting in ˜5000 RU of protein A/G on the surface. The sensor chip was deactivated with 1M ethanolamine HCl in the horizontal direction for 300 sec at a flowrate of 30 μl/min.
For binding kinetic determination to CD3, hu CD3εγ-Fc and cy CD3εγ-Fc (dissolved in pH 4.5 acetate) was immobilized directly onto the sensor surface through amine coupling for 140 sec at a flowrate of 30 μl/min vertically. The baseline was stabilized by injecting PBS-T-EDTA for 60 sec at a flowrate of 40 μl/min horizontally. The analyte (the bispecific molecule) was injected horizontally over the captured CD3εγ-Fc construct for 600 sec at a flowrate of 40 μl/min and a dissociation for 600 sec.
(§2) The inter spot (interactions with sensor surface) and blank (PBS-T-EDTA) were subtracted from the raw data.

Cyno DLL3-His = target: T5, Cyno DLL3-His (cynomolgus monkey, UniProt Q9NYJ7 27-492 (human entry)); experiment: SPR; ratio of the KD values for human and cyno DLL3
T5 construct: also called cy DLL3; recombinant cyno DLL3-ECD
T5 chain: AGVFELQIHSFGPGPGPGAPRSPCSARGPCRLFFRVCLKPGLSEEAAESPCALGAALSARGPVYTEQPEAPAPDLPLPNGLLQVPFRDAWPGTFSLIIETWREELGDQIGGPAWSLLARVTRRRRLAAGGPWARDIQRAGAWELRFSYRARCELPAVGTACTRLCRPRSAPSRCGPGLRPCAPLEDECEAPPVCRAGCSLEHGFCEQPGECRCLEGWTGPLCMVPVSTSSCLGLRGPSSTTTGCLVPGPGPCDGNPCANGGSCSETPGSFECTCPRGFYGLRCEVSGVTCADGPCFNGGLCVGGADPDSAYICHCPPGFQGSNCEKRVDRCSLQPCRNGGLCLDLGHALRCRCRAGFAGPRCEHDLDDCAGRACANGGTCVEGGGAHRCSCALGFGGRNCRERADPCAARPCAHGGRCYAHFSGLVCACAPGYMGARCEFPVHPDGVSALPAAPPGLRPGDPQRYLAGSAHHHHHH
Procedure: as §1
For binding kinetic determination to DLL3, bispecific molecules were captured individually on the protein A/G surface vertically for 250 sec at a flowrate of 25 μl/min. The baseline was stabilized by injecting PBS-T-EDTA for 60 sec at a flowrate of 40 μl/min horizontally. The analyte (hu DLL3 or cy DLL3) was injected horizontally over the captured antibody for 600 sec at a flowrate of 40 μl/min and a dissociation for 2700 sec.
as §2

Binder | binding result [1] | EC90, 72 hour cytotoxicity assay (LDH release), non-stimulated PBMCs as effector cells, NCI-H82 target cells [2] [nM] | EC90, 72 hour cytotoxicity assay (LDH release), non-stimulated PBMCs as effector cells, SHP77 target cells [2] [nM] | binding result [3] | Kd (Human CD3 E+G HuFc-6xHis) [nM] | Affinity gap KD hu/cyno DLL3 (Cyno DLL3-His)
DLL3#2/CD3#1 (bispecific antibody, human IgG1, kappa, lambda, L234A L235A, Heterodimer of one DLL3 chain and one CD3 chain (scFab-Fc, knob-in-hole)) chain 1: DIQMTQSPSAMSASVGDRVTITCRASQGISNYLAWFQQKPGKVPEPLIYAASSLQSGVPSRFSGSGSVTEFTLTISSLQPEDFATYYCLQHNSSPYTFGQGTKLEIKRTVAAPSVFIFPPSDEQLKSGTASVVCLLNNFYPREAKVQWKVDNALQSGNSQESVTEQDSKDSTYSLSSTLTLSKADYEKHKVYACEVTHQGLSSPVTKSFNRGECGGGGSEGKSSGSGSESKSTEGKSSGSGSESKSTGGGGSQVQLVQSGAEVKKPGASVKVSCKASGYTFTSYYMHWVRQAPGQGLEWMGIINPSGGSTSYAQKFQGRVTMTRDTSTSTVYMELSSLRSEDTAVYYCARGEAVGGNYYYYGMDVWGQGTTVTVSSASTKGPSVFPLAPSSKSTSGGTAALGCLVKDYFPEPVTVSWNSGALTSGVHTFPAVLQSSGLYSLSSVVTVPSSSLGTQTYICNVNHKPSNTKVDKRVEPKSCDKTHTCPPCPAPEAAGGPSVFLFPPKPKDTLMISRTPEVTCVVVDVSHEDPEVKFNWYVDGVEVHNAKTKPREEQYNSTYRVVSVLTVLHQDWLNGKEYKCKVSNKALPAPIEKTISKAKGQPREPQVYTLPPSREEMTKNQVSLWCLVKGFYPSDIAVEWESNGQPENNYKTTPPVLDSDGSFFLYSKLTVDKSRWQQGNVFSCSVMHEALHNHYTQKSLSLSPG chain 2: EAVVTQEPSLTVSPGGTVTLTCRSSTGAVTTSNYANWVQEKPGQLPRGLIGGTNKRAPWVPARFSGSLLGGKAALTLSGAQPEDEAEYFCALWYSNLWVFGGGTKLTVLGQPKAAPSVTLFPPSSEELQANKATLVCLISDFYPGAVKVAWKADGSPVNTGVETTTPSKQSNNKYAASSYLSLTPEQWKSHRSYSCQVTHEGSTVEKTVAPAECSGGGGSEGKSSGSGSESKSTEGKSSGSGSESKSTGGGGSEVQLVESGGGLVQPGGSLKLSCAASGFTFNTYAMNWVRQAPGKGLEWVARIRSKYNNYATYYADSVKDRFTISRDDSKNTAYLQMNNLKTEDTAVYYCVRHGNFGNSYVSWFAYWGQGTLVTVSAASTKGPSVFPLAPSSKSTSGGTAALGCLVKDYFPEPVTVSWNSGALTSGVHTFPAVLQSSGLYSLSSVVTVPSSSLGTQTYICNVNHKPSNTKVDKRVEPKSCDKTHTCPPCPAPEAAGGPSVFLFPPKPKDTLMISRTPEVTCVVVDVSHEDPEVKFNWYVDGVEVHNAKTKPREEQYNSTYRVVSVLTVLHQDWLNGKEYKCKVSNKALPAPIEKTISKAKGQPREPQVYTLPPSREEMTKNQVSLSCAVKGFYPSDIAVEWESNGQPENNYKTTPPVLDSDGSFFLVSKLTVDKSRWQQGNVFSCSVMHEALHNRFTQKSLSLSPG | binds | 2.9 | 3.4 | – | – | –
DLL3#3/CD3#1 (bispecific antibody, human IgG1, kappa, lambda, L234A L235A, Heterodimer of one DLL3 chain and one CD3 chain (scFab-Fc, knob-in-hole)) chain 1: DIQMTQSPSAMSASVGDRVTITCRASQGISNYLVWFQQKPGKAPKRLIYAVSSLYSGVPSRFSGSGSGTEFTLTISSLQPEDFATYYCLQHDSYPYTFGQGTKLEIKRTVAAPSVFIFPPSDEQLKSGTASVVCLLNNFYPREAKVQWKVDNALQSGNSQESVTEQDSKDSTYSLSSTLTLSKADYEKHKVYACEVTHQGLSSPVTKSFNRGECGGGGSEGKSSGSGSESKSTEGKSSGSGSESKSTGGGGSQVQLVQSGAEVKKPGASVKVSCKASGYTFTSYYVHWVRQAPGQGLEWMVIINPGGGTTSYAQKFLGRVTMTRDTSTNTVYMELKSLRSEDTAVYYCARGEAVTGNYFYYGMDVWGQGTTVTVSSASTKGPSVFPLAPSSKSTSGGTAALGCLVKDYFPEPVTVSWNSGALTSGVHTFPAVLQSSGLYSLSSVVTVPSSSLGTQTYICNVNHKPSNTKVDKRVEPKSCDKTHTCPPCPAPEAAGGPSVFLFPPKPKDTLMISRTPEVTCVVVDVSHEDPEVKFNWYVDGVEVHNAKTKPREEQYNSTYRVVSVLTVLHQDWLNGKEYKCKVSNKALPAPIEKTISKAKGQPREPQVYTLPPSREEMTKNQVSLWCLVKGFYPSDIAVEWESNGQPENNYKTTPPVLDSDGSFFLYSKLTVDKSRWQQGNVFSCSVMHEALHNHYTQKSLSLSPG chain 2: EAVVTQEPSLTVSPGGTVTLTCRSSTGAVTTSNYANWVQEKPGQLPRGLIGGTNKRAPWVPARFSGSLLGGKAALTLSGAQPEDEAEYFCALWYSNLWVFGGGTKLTVLGQPKAAPSVTLFPPSSEELQANKATLVCLISDFYPGAVKVAWKADGSPVNTGVETTTPSKQSNNKYAASSYLSLTPEQWKSHRSYSCQVTHEGSTVEKTVAPAECSGGGGSEGKSSGSGSESKSTEGKSSGSGSESKSTGGGGSEVQLVESGGGLVQPGGSLKLSCAASGFTFNTYAMNWVRQAPGKGLEWVARIRSKYNNYATYYADSVKDRFTISRDDSKNTAYLQMNNLKTEDTAVYYCVRHGNFGNSYVSWFAYWGQGTLVTVSAASTKGPSVFPLAPSSKSTSGGTAALGCLVKDYFPEPVTVSWNSGALTSGVHTFPAVLQSSGLYSLSSVVTVPSSSLGTQTYICNVNHKPSNTKVDKRVEPKSCDKTHTCPPCPAPEAAGGPSVFLFPPKPKDTLMISRTPEVTCVVVDVSHEDPEVKFNWYVDGVEVHNAKTKPREEQYNSTYRVVSVLTVLHQDWLNGKEYKCKVSNKALPAPIEKTISKAKGQPREPQVYTLPPSREEMTKNQVSLSCAVKGFYPSDIAVEWESNGQPENNYKTTPPVLDSDGSFFLVSKLTVDKSRWQQGNVFSCSVMHEALHNRFTQKSLSLSPG | binds | 0.9 | 1.5 | no binding (tested: 1 µM) | 7 | 1
